In general, Kd refers to the concentration at which binding is half-saturated. The low end stands for higher affinity, the high end for lower affinity.

This experiment concerns the target short 17-residues peptide (cargo titrated against CADY-2). Kind of experiment: steady state Trp fluorescence quenching, fixed CADY (0.1 uM) titrated with cargo peptide in PBS, quadratic fit.

B1: CADY-2 (Ac-…-Cya) (peptide)
peptide: GLWRALWRALWRSLWKLKWKV
HELM: PEPTIDE1{[ac].G.L.W.R.A.L.W.R.A.L.W.R.S.L.W.K.L.K.W.K.V.[SCCN[*:1]]}$$$$V2.0
SMILES: CC(=O)NCC(=O)N[C@@H](CC(C)C)C(=O)N[C@@H](Cc1c[nH]c2ccccc12)C(=O)N[C@@H](CCCNC(=N)N)C(=O)N[C@@H](C)C(=O)N[C@@H](CC(C)C)C(=O)N[C@@H](Cc1c[nH]c2ccccc12)C(=O)N[C@@H](CCCNC(=N)N)C(=O)N[C@@H](C)C(=O)N[C@@H](CC(C)C)C(=O)N[C@@H](Cc1c[nH]c2ccccc12)C(=O)N[C@@H](CCCNC(=N)N)C(=O)N[C@@H](CO)C(=O)N[C@@H](CC(C)C)C(=O)N[C@@H](Cc1c[nH]c2ccccc12)C(=O)N[C@@H](CCCCN)C(=O)N[C@@H](CC(C)C)C(=O)N[C@@H](CCCCN)C(=O)N[C@@H](Cc1c[nH]c2ccccc12)C(=O)N[C@@H](CCCCN)C(=O)N[C@H](C(=O)NCCS)C(C)C
B1 came in with a Kd of 19 nM.

For the origin of these results see patent publication US20090292003A1.
